Measurements reported in patent publication US20230381336A1 (SHANGHAI MIRACOGEN, published 2023).

T1: human Claudin 18.2 (human, UniProt P56856-2 1-261)
T1 sequence (looked up): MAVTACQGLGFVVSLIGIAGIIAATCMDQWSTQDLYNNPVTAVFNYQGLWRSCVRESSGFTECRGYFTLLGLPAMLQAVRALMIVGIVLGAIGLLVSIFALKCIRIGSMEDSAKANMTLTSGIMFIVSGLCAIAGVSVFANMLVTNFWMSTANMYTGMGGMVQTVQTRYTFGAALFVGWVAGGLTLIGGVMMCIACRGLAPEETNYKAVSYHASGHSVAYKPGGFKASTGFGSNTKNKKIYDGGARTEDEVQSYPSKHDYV

T2: human Claudin 18.1 (human, UniProt P56856 1-261)
T2 construct: whole, on cells; Splice variant used as specificity control
T2 sequence (looked up): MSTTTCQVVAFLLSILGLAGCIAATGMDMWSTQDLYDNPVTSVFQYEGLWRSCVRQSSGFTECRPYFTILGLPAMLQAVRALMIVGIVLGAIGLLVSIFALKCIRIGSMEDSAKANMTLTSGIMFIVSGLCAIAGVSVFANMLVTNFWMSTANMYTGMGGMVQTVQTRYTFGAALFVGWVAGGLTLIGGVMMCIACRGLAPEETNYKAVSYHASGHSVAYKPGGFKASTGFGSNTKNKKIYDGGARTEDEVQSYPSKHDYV


Columns and labels:
human Claudin 18.2 = molecular target: T1, human Claudin 18.2; test: cell-based or functional assay
human Claudin 18.1 = molecular target: T2, human Claudin 18.1; test: flow cytometry (iQue) on HEK293 cells stably expressing human Claudin 18.1
Description: The cells were gently tapped, and 50 μL of serially diluted antibodies were added to each well (antibody concentration starting from 100 nM, 5-fold dilution for 8 gradients), and incubated at 4° C. for 1 hour. After the incubation, 140μL of 0.5% BSA was added to each well to wash 3 times, and 30 μL/well of secondary antibody AlexaFluro647 anti-human IgG (Jackson ImmunoResearch, Cat: 109-606-170) was added, and incubated at 4° C. for 40 minutes. After the incubation, 140 μL of 0.5% BSA was added to each well to wash 3 times, and finally each well was resuspended in 50 μL of PBS for detection by flow cytometry (iQue Screener).

Row | Binder | Mean IC50 of cell killing, LT-1C8 cells (KATO stable cell line, medium Claudin 18.2 expression), 96 h, CCK-8 or Presto-Blue (human Claudin 18.2) [µg/mL] | Mean IC50 of cell killing, LT-M11 cells (KATO stable cell line, high Claudin 18.2 expression), 96 h, CCK-8 or Presto-Blue (human Claudin 18.2) [µg/mL] | Mean IC50 of cell killing, row without a cell line label printed under LT-M11 (taken as a second LT-M11 series) (human Claudin 18.2) [µg/mL] | binding result (human Claudin 18.1)
1 | CM311-18A9-VH7/VL2-ADC (other, MC-vc-PAB-MMAE coupled to free cysteine thiols of the DTT-reduced antibody; average DAR 3.0 per antibody; sites not stated) VH: QVQLVQSGAEVKKPGASVKVSCKPSGYTFTNYLIDWVRQAPGQGLEWMGGINPGSGDTVYNEKFQGRVTLTADTSTSTVYMELSSLRSEDTAVYFCARRVRGNSFDSWGQGTLVTVSS VL: not shown | 0.111 | 0.155 | 0.0512 | 
2 | 18D10 chimera (antibody, V domains shown, also called Clone 18D10; 18D10 mVH / 18D10 mVL) VH: DVQLQESGPGLVKPSQSLSLTCTVTGYSITSNYAWNWIRQFPGNKLEWMGYINYSGNTNYNPSLKSRISITRDTSKNQFFLQLNSVTAEDTATYYCATSYYGNSFIYWGQGTLVTVSA VL: DIVMTQSPSSLTVTAGEKVTMSCKSSQSLLNSGNQKNYLTWYQQKPGQPPKLLIYWASTRESGVPDRFTGSGSGTDFTLTISSVQAEDLAVYYCQNAYSFPWTFGGGTKLEIK |  |  |  | no binding
3 | 18A9 chimera (antibody, V domains shown, also called Clone 18A9; 18A9 mVH / 18A9 mVL) VH: QVQLQQSGREVVRPGTSVKVSCKPSGYAFTNYLIDWVKQRPGQGLEWIGGINPGSGDTVYNEKFKAKATLTADKSSMTANMQLSSLTSDDSAVYFCARRVRGNSFDSWGQGTLVTVSA VL: DIVMSQSPSSLTVTAGEKVTMSCKSSQSLLNSGNQKNYLTWYQQKPGQPPKLLIYWASTRESGVPDRFTGSGSGKDFTLTISSVQAEDLALYYCQNNYFYPLTFGAGTKLELK |  |  |  | no binding
4 | CM311-18D10-VH3/VL2-ADC (other, MC-vc-PAB-MMAE coupled to free cysteine thiols of the DTT-reduced antibody; average DAR 3.5 per antibody; sites not stated) VH: QVQLQESGPGLVKPSETLSLTCTVSGGSISSNYAWNWIRQPPGKGLEWIGYINYSGNTNYNPSLKSRVTISRDTSKNQFSLKLSSVTAADTAVYYCATSYYGNSFIYWGQGTLVTVSS VL: not shown | 0.52 | 0.2 | 0.132 | 
5 | CM311-18D10-VH6/VL2-ADC (other, MC-vc-PAB-MMAE coupled to free cysteine thiols of the DTT-reduced antibody; average DAR 3.4 per antibody; sites not stated) VH: QVQLQESGPGLVKPSETLSLTCTVSGGSISSNYAWNWIRQPPGKGLEWIGYIYYSGNTNYNPSLKSRVTISRDTSKNQFSLKLSSVTAADTAVYYCATSYYGNSFIYWGQGTLVTVSS VL: not shown | 0.615 | 0.35 | 0.147 | 
